Data reported in paper doi:10.1101/684480.

Key:
BCR-ABL Y177F (human) [1] = target: BCR-ABL Y177F (human) (UniProt P11274); test: co-IP
[2] = target: BCR-ABL with deleted FABD domain (human) (UniProt P11274); test: co-IP
[3] = target: BCR-ABL with deleted IDR (human) (UniProt P11274); test: co-IP
[4] = target: BCR-ABL with deleted DH-PH domains (human) (UniProt P11274); test: co-IP
BCR-ABL Y177F (human) [5] = target: BCR-ABL Y177F (human) (UniProt P11274); test: native gel or EMSA
[6] = target: kinase-dead BCR-ABL (K271H) (human) (UniProt P11274); test: native gel or EMSA
[7] = target: BCR-ABL with deleted PH domain (human) (UniProt P11274); test: co-IP
p190 BCR-ABL (human) = p190 BCR-ABL (human) (UniProt P11274); test: proximity ligation

p85a-PI3K, transfected (from UniProt P27986 1-724) (natural protein)
decrease of binding against BCR-ABL (BCR-ABL Y177F (human) [1]): 50% | decrease of binding against BCR-ABL [2]: 40% | decrease of binding against BCR-ABL [3]: 70% | decrease of binding against BCR-ABL [4]: 80%

GRB2 of NIH3T3 cells (from UniProt Q60631 1-217) (natural protein)
percent of GRB2 associated (BCR-ABL Y177F (human) [5]): 30% | percent of GRB2 associated [6]: 30%

B1: SHC1, endogenous (natural protein)
chain: MDLLPPKPKYNPLRNESLSSLEEGASGSTPPEELPSPSASSLGPILPPLPGDDSPTTLCSFFPRMSNLRLANPAGGRPGSKGEPGRAADDGEGIVGAAMPDSGPLPLLQDMNKLSGGGGRRTRVEGGQLGGEEWTRHGSFVNKPTRGWLHPNDKVMGPGVSYLVRYMGCVEVLQSMRALDFNTRTQVTREAISLVCEAVPGAKGATRRRKPCSRPLSSILGRSNLKFAGMPITLTVSTSSLNLMAADCKQIIANHHMQSISFASGGDPDTAEYVAYVAKDPVNQRACHILECPEGLAQDVISTIGQAFELRFKQYLRNPPKLVTPHDRMAGFDGSAWDEEEEEPPDHQYYNDFPGKEPPLGGVVDMRLREGAAPGAARPTAPNAQTPSHLGATLPVGQPVGGDPEVRKQMPPPPPCPGRELFDDPSYVNVQNLDKARQAVGGAGPPNPAINGSAPRDLFDMKPFEDALRVPPPPQSVSMAEQLRGEPWFHGKLSRREAEALLQLNGDFLVRESTTTPGQYVLTGLQSGQPKHLLLVDPEGVVRTKDHRFESVSHLISYHMDNHLPIISAGSELCLQQPVERKL
decrease of the interaction against BCR-ABL [7]: 70%

B2: V5-tagged SHIP2 (enzyme)
chain: MASACGAPGPGGALGSQAPSWYHRDLSRAAAEELLARAGRDGSFLVRDSESVAGAFALCVLYQKHVHTYRILPDGEDFLAVQTSQGVPVRRFQTLGELIGLYAQPNQGLVCALLLPVEGEREPDPPDDRDASDGEDEKPPLPPRSGSTSISAPTGPSSPLPAPETPTAPAAESAPNGLSTVSHDYLKGSYGLDLEAVRGGASHLPHLTRTLATSCRRLHSEVDKVLSGLEILSKVFDQQSSPMVTRLLQQQNLPQTGEQELESLVLKLSVLKDFLSGIQKKALKALQDMSSTAPPAPQPSTRKAKTIPVQAFEVKLDVTLGDLTKIGKSQKFTLSVDVEGGRLVLLRRQRDSQEDWTTFTHDRIRQLIKSQRVQNKLGVVFEKEKDRTQRKDFIFVSARKREAFCQLLQLMKNKHSKQDEPDMISVFIGTWNMGSVPPPKNVTSWFTSKGLGKTLDEVTVTIPHDIYVFGTQENSVGDREWLDLLRGGLKELTDLDYRPIAMQSLWNIKVAVLVKPEHENRISHVSTSSVKTGIANTLGNKGAVGVSFMFNGTSFGFVNCHLTSGNEKTARRNQNYLDILRLLSLGDRQLNAFDISLRFTHLFWFGDLNYRLDMDIQEILNYISRKEFEPLLRVDQLNLEREKHKVFLRFSEEEISFPPTYRYERGSRDTYAWHKQKPTGVRTNVPSWCDRILWKSYPETHIICNSYGCTDDIVTSDHSPVFGTFEVGVTSQFISKKGLSKTSDQAYIEFESIEAIVKTASRTKFFIEFYSTCLEEYKKSFENDAQSSDNINFLKVQWSSRQLPTLKPILADIEYLQDQHLLLTVKSMDGYESYGECVVALKSMIGSTAQQFLTFLSHRGEETGNIRGSMKVRVPTERLGTRERLYEWISIDKDEAGAKSKAPSVSRGSQEPRSGSRKPAFTEASCPLSRLFEEPEKPPPTGRPPAPPRAAPREEPLTPRLKPEGAPEPEGVAAPPPKNSFNNPAYYVLEGVPHQLLPPEPPSPARAPVPSATKNKVAITVPAPQLGHHRHPRVGEGSSSDEESGGTLPPPDFPPPPLPDSAIFLPPSLDPLPGPVVRGRGGAEARGPPPPKAHPRPPLPPGPSPASTFLGEVASGDDRSCSVLQMAKTLSEVDYAPAGPARSALLPGPLELQPPRGLPSDYGRPLSFPPPRIRESIQEDLAEEAPCLQGGRASGLGEAGMSAWLRAIGLERYEEGLVHNGWDDLEFLSDITEEDLEEAGVQDPAHKRLLLDTLQLSK
interaction preserved with nilotinib, against active BCR-ABL (p190 BCR-ABL (human)): > 50%
